Here are results for six molecules from article PMC8551067 (Biochemistry, 2021).

Residue numbers refer to the chain shown, from its start. Names and notes keep the numbering of the source.

Data set [1] addresses S723F-PvCPS-α (prenyltransferase α domain of copalyl diphosphate synthase from Penicillium verruculosum, S723F variant) (Penicillium verruculosum). As to the kind of experiment: crystal structure.
The target in data set [2] is PvCPS (full-length copalyl diphosphate synthase) (Talaromyces verruculosus, UniProt A0A348FUE1, S723T). As to conditions: substrate inhibition constant; 1 mM DMAPP, 1 mM MgCl2, pH 7.5.
Substrate in the data set “purified protein”: C=C(C)CCO[P@@](=O)(O)OP(=O)(O)O
The data set can be described thus: purified protein. As to conditions: prenyltransferase activity, 1 mM DMAPP, 1 mM MgCl2, pH 7.5.

Chain of PvCPS (full-length copalyl diphosphate synthase) (A0A348FUE1 whole entry S723T): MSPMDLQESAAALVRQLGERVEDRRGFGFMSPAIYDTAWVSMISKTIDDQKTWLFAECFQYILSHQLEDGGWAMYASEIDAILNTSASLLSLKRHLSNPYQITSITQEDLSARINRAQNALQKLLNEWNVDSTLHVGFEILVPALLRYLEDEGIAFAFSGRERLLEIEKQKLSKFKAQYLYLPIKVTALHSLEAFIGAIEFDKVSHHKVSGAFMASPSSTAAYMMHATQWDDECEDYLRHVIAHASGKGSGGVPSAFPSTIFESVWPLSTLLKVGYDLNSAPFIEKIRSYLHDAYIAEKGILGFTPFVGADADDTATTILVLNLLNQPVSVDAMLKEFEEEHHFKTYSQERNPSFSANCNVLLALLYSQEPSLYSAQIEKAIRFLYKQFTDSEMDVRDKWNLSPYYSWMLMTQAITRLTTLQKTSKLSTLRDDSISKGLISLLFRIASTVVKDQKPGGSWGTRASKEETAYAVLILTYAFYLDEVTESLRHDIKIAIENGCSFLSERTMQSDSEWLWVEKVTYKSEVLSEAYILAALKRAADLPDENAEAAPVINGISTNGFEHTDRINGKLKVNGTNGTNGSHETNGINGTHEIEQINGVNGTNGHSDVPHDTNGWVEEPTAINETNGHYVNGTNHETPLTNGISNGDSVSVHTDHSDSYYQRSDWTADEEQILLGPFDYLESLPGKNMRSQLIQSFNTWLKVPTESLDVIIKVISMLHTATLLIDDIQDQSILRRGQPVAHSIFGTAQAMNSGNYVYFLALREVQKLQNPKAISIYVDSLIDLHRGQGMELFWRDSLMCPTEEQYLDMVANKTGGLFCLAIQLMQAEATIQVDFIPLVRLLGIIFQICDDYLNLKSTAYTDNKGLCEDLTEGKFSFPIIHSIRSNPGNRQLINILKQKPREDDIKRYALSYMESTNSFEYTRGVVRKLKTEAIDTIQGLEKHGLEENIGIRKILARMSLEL

For “S723F-PvCPS-α (prenyltransferase α domain of copalyl diphosphate synthase from Penicillium verruculosum, S723F variant) (domain or fragment)”, the stoichiometry N (commonly a count of units in the complex or per binding partner) in data set [1] stood at 6.

Turning to `C=C(C)CCOP(=O)(O)OP(=O)(O)O` [isopentenyl diphosphate], in data set [2], the S723T worked out at 700 ± 100 µM.

B1: PvCPS (full-length copalyl diphosphate synthase) (Talaromyces verruculosus; H786A) (protein)
chain: MSPMDLQESAAALVRQLGERVEDRRGFGFMSPAIYDTAWVSMISKTIDDQKTWLFAECFQYILSHQLEDGGWAMYASEIDAILNTSASLLSLKRHLSNPYQITSITQEDLSARINRAQNALQKLLNEWNVDSTLHVGFEILVPALLRYLEDEGIAFAFSGRERLLEIEKQKLSKFKAQYLYLPIKVTALHSLEAFIGAIEFDKVSHHKVSGAFMASPSSTAAYMMHATQWDDECEDYLRHVIAHASGKGSGGVPSAFPSTIFESVWPLSTLLKVGYDLNSAPFIEKIRSYLHDAYIAEKGILGFTPFVGADADDTATTILVLNLLNQPVSVDAMLKEFEEEHHFKTYSQERNPSFSANCNVLLALLYSQEPSLYSAQIEKAIRFLYKQFTDSEMDVRDKWNLSPYYSWMLMTQAITRLTTLQKTSKLSTLRDDSISKGLISLLFRIASTVVKDQKPGGSWGTRASKEETAYAVLILTYAFYLDEVTESLRHDIKIAIENGCSFLSERTMQSDSEWLWVEKVTYKSEVLSEAYILAALKRAADLPDENAEAAPVINGISTNGFEHTDRINGKLKVNGTNGTNGSHETNGINGTHEIEQINGVNGTNGHSDVPHDTNGWVEEPTAINETNGHYVNGTNHETPLTNGISNGDSVSVHTDHSDSYYQRSDWTADEEQILLGPFDYLESLPGKNMRSQLIQSFNTWLKVPTESLDVIIKVISMLHTASLLIDDIQDQSILRRGQPVAHSIFGTAQAMNSGNYVYFLALREVQKLQNPKAISIYVDSLIDLARGQGMELFWRDSLMCPTEEQYLDMVANKTGGLFCLAIQLMQAEATIQVDFIPLVRLLGIIFQICDDYLNLKSTAYTDNKGLCEDLTEGKFSFPIIHSIRSNPGNRQLINILKQKPREDDIKRYALSYMESTNSFEYTRGVVRKLKTEAIDTIQGLEKHGLEENIGIRKILARMSLEL
Regarding B1, in the data set “purified protein”, the Km (in general, the substrate concentration at which the rate is half of its maximum) turned out to be 160 ± 10 µM; the kcat – broadly, the maximal rate divided by the concentration of active sites – turned out to be 0.027 s⁻¹; the kcat/Km (in general, the turnover number divided by the Michaelis constant) worked out at 170 M⁻¹ s⁻¹.

B2: PvCPS (full-length copalyl diphosphate synthase) (Talaromyces verruculosus; S723F) (protein)
chain: B1 chain with S723F, A786H
Take B2: in “purified protein”, the Km stood at 50 ± 10 µM, the kcat was 0.11 s⁻¹ and the kcat/Km worked out at 2200 M⁻¹ s⁻¹.

B3: PvCPS (full-length copalyl diphosphate synthase) (Talaromyces verruculosus; S723T) (protein)
chain: B1 chain with S723T, A786H
On to B3, for which, in “purified protein”, the Km is 36 ± 3 µM, the kcat came to 0.051 s⁻¹ and the kcat/Km came to 1400 M⁻¹ s⁻¹.

B4: PvCPS (full-length copalyl diphosphate synthase) (Talaromyces verruculosus; F760A) (protein)
chain: B1 chain with F760A, A786H
With B4, in “purified protein”, the Km is 38 ± 1 µM, the kcat stood at 0.0279 s⁻¹ and the kcat/Km stood at 740 M⁻¹ s⁻¹.
